The source of these data is patent US20120321557A1 (FORERUNNER PHARMA RESEARCH, published 2012).

For assay [1], the target named is T1, human ICAM1 (human, UniProt P05362 28-532).
T1 construct: also called ICAM1/BaF3 (cells that carry it)
Nature of the assay: FACS on ICAM1-expressing BaF3 transfectant, anti-mouse IgG-FITC detection. The protocol: (§1) Next, using these cell lines thus established, the cross-reactivity of IB23 with the ICAM family was analyzed. Each 10 μg/ml of the IB23 antibody, an anti-human ICAM1 antibody (R&D Systems, Inc., #BBA3), and an anti-human ICAM5 antibody (R&D Systems, Inc., #MAB1950) were reacted with ICAM1/BaF3 and ICAM5/BaF3. Then, after staining with an anti-mouse IgG-FITC antibody (Beckman Coulter #IM0819), the binding of each antibody was analyzed by FACS (Becton, Dickinson and Company).

In assay [2] the target is T2, human ICAM5 (human, UniProt Q9UMF0 32-924).
T2 construct: also called ICAM5/BaF3 (cells that carry it)
T2 sequence: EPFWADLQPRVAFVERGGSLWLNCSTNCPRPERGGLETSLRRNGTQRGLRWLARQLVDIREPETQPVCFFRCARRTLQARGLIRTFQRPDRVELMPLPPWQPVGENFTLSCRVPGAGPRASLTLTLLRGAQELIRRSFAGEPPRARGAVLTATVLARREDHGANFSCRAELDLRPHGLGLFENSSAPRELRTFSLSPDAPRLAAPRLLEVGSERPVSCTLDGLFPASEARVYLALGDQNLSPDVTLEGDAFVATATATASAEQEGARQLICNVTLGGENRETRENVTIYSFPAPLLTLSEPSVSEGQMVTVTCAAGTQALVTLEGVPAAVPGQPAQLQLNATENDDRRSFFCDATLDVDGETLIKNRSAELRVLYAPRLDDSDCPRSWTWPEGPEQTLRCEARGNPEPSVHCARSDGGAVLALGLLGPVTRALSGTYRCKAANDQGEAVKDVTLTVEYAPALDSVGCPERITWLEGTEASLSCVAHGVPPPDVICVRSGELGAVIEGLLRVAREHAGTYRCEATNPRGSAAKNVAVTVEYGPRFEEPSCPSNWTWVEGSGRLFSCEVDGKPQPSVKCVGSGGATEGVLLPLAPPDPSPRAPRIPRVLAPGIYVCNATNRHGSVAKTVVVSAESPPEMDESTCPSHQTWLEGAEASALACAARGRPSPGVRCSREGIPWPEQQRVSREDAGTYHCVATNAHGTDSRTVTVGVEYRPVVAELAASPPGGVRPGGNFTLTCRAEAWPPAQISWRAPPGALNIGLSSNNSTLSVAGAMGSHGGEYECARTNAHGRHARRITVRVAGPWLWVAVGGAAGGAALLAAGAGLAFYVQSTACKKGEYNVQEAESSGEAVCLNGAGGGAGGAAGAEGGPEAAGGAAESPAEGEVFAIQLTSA
Nature of the assay: FACS on ICAM5-expressing BaF3 transfectant, anti-mouse IgG-FITC detection. The protocol:
as §1

T1 sequence (P05362 28-532 K469E limits assumed): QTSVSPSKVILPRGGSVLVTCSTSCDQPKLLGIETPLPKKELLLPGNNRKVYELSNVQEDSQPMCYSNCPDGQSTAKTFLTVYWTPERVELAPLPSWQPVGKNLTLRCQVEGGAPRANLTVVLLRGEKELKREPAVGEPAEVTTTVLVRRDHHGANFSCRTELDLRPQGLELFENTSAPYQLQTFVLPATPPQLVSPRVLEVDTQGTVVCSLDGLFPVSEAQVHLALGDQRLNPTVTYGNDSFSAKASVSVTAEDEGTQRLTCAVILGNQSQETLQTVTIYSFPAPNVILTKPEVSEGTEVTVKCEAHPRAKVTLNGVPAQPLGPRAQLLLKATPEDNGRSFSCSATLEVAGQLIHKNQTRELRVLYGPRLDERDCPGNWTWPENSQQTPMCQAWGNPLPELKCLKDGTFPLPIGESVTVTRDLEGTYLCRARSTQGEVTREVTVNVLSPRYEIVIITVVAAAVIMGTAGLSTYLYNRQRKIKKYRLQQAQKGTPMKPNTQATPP

B1: mouse monoclonal antibody IB23 (antibody, V domains shown)
VH: QVQLQQSGAELAKPGASVKMSCKASGYTFTTYWMHWVKQRPGQGLEWIGYINPNTDYTEYNQKFKDKATLTADKSSSTAFMQLSSLTSEDSAVYYCASSRDAYHGTYWGQGTLVTVSA
VL: DIVMTQSPATLSVTPGDRVSLSCRASQSISDYLHWYQQKSHESPRLLIRYASQSISGIPSRFSGSGSGSDFTLSINNVEPEDVGVYYCQNGHNFPLTFGAGTKLELK
notes: Mouse hybridoma antibody purified on Protein G and detected with anti-mouse IgG-FITC; also called IB23 antibody; mouse IB23 antibody
With B1, the binding result in assay [1] and in assay [2] was “no binding (tested: 10 µg/ml)” each time.
